Experimental data taken from US20120171195A1.

Experiments:
HLA-A*2402 (A24) (human) = HLA-A*2402 (A24) (human) (UniProt P04439); assay: Luminex single-antigen beads; MEM-E/02 1/600; serum Mi114 1/100
HLA-B*3901 (B39) (human) = HLA-B*3901 (B39) (human) (UniProt P01889); assay: as above
HLA-B*3801 (B38) (human) = assay: as above
[1] = molecular target: HLA-Cw*0801 (Cw8) (human) (UniProt P10321); assay: as above
HLA-A*3201 (A32) (human) = assay: as above
HLA-B*5801 (B58) (human) = assay: as above
HLA-A*2403 (A24) (human) = assay: as above
[2] = molecular target: HLA-Cw*1701 (Cw17) (human); assay: as above
[3] = molecular target: HLA-Cw*0401 (Cw4) (human); assay: as above
HLA-B*6701 (B67) (human) = HLA-B*6701 (B67) (human) (UniProt P01889); assay: as above
HLA-A*3002 (A30) (human) = HLA-A*3002 (A30) (human) (UniProt P04439); assay: as above
HLA-B*4403 (B44) (human) = assay: as above
HLA-B*4006 (human) = HLA-B*4006 (human) (UniProt P01889); assay: Luminex beads; MAb 1/400; competitor IgG-free serum
HLA-Cw*1802 (human) [4] = molecular target: HLA-Cw*1802 (human) (UniProt P10321); assay: as above
HLA-Cw*1701 (human) [5] = assay: as above
HLA-Cw*0801 (human) = HLA-Cw*0801 (human) (UniProt P10321); assay: as above
HLA-B*1513 (human) [6] = assay: Luminex beads; MAb 1/400; competitor rHLA-E
HLA-Cw*0501 (human) [7] = assay: Luminex beads; MAb 1/400; competitor rHLA-E
HLA-B*1402 (human) = assay: Luminex beads; MAb 1/400; competitor rHLA-E
HLA-B*5101 (human) [8] = assay: Luminex beads; MAb 1/400; competitor rHLA-E
HLA-B*3701 (human) [9] = assay: Luminex beads; MAb 1/400; competitor rHLA-E
HLA-Cw*1701 (human) [10] = assay: Luminex beads; MAb 1/400; competitor rHLA-E
HLA-Cw*0302 (human) = HLA-Cw*0302 (human) (UniProt P10321); assay: Luminex beads; MAb 1/400; competitor rHLA-E
HLA-Cw*1601 (human) [11] = molecular target: HLA-Cw*1601 (human) (UniProt P10321); assay: Luminex beads; MAb 1/400; competitor rHLA-E
HLA-B*1511 (human) [12] = molecular target: HLA-B*1511 (human) (UniProt P01889); assay: Luminex beads; MAb 1/400; competitor rHLA-E
HLA-Cw*1402 (human) = HLA-Cw*1402 (human) (UniProt P10321); assay: Luminex beads; MAb 1/800; competitor rHLA-E
HLA-Cw*0501 (human) [13] = assay: Luminex beads; MAb 1/800; competitor rHLA-E
HLA-Cw*1802 (human) [14] = molecular target: HLA-Cw*1802 (human) (UniProt P10321); assay: Luminex beads; MAb 1/800; competitor rHLA-E
HLA-B*5101 (human) [15] = assay: Luminex beads; MAb 1/800; competitor rHLA-E
HLA-B*3701 (human) [16] = assay: Luminex beads; MAb 1/800; competitor rHLA-E
HLA-Cw*1601 (human) [17] = molecular target: HLA-Cw*1601 (human) (UniProt P10321); assay: Luminex beads; MAb 1/800; competitor rHLA-E
HLA-B*1513 (human) [18] = assay: Luminex beads; MAb 1/800; PBS only
HLA-Cw*0304 (human) = assay: Luminex beads; MAb 1/800; PBS only
HLA-B*5201 (human) = assay: Luminex beads; MAb 1/800; PBS only
HLA-B*5101 (human) [19] = assay: Luminex beads; MAb 1/800; PBS only
HLA-B*4101 (human) = HLA-B*4101 (human) (UniProt P01889); assay: Luminex beads; MAb 1/800; PBS only
HLA-Cw*1701 (human) [20] = assay: Luminex beads; MAb 1/800; PBS only
HLA-Cw*0303 (human) = assay: Luminex beads; MAb 1/800; PBS only
HLA-Cw*1601 (human) [21] = molecular target: HLA-Cw*1601 (human) (UniProt P10321); assay: Luminex beads; MAb 1/800; PBS only
HLA-Cw*0602 (human) = HLA-Cw*0602 (human) (UniProt P10321); assay: Luminex beads; MAb 1/800; PBS only
HLA-B*5801 (human) = assay: Luminex beads; MAb 1/800; PBS only
HLA-B*1511 (human) [22] = molecular target: HLA-B*1511 (human) (UniProt P01889); assay: Luminex beads; MAb 1/800; PBS only
HLA-B*8201 (human) = HLA-B*8201 (human) (UniProt P01889); assay: Luminex beads; MAb 1/800; PBS only

murine monoclonal antibody MAb MEM-E/02 was tested, and the MFI (HLA-A*2402 (A24) (human)) was < 500 MFI, the MFI (HLA-B*3901 (B39) (human)) was 530 MFI and the % inhibition (HLA-B*3801 (B38) (human)) was 76%. The MFI (HLA-B*3801 (B38) (human)) was 929 MFI, the MFI [1] was < 500 MFI and the MFI (HLA-A*3201 (A32) (human)) was 742 MFI. For the same substance, the % inhibition (HLA-B*5801 (B58) (human)) was 37%, the MFI (HLA-B*5801 (B58) (human)) was 2110 MFI and the MFI (HLA-A*2403 (A24) (human)) was < 500 MFI. The MFI [2] was < 500 MFI, the MFI [3] was < 500 MFI and the MFI (HLA-B*6701 (B67) (human)) was < 500 MFI. For the same substance, the MFI (HLA-A*3002 (A30) (human)) was 803 MFI and the MFI (HLA-B*4403 (B44) (human)) was < 500 MFI.

“murine monoclonal antibody (MAb) MEM-E/02” showed an MFI (HLA-B*4006 (human)) of 5550 MFI, an MFI (HLA-Cw*1802 (human) [4]) of 7220 MFI and an MFI (HLA-Cw*1701 (human) [5]) of 1360 MFI. The MFI (HLA-Cw*0801 (human)) was 3530 MFI, the MFI (HLA-B*1513 (human) [6]) was 228 MFI and the MFI (HLA-Cw*0501 (human) [7]) was 87 MFI. The MFI (HLA-B*1402 (human)) was 88 MFI, the MFI (HLA-B*5101 (human) [8]) was 128 MFI and the MFI (HLA-B*3701 (human) [9]) was 39 MFI. It also gave an MFI (HLA-Cw*1701 (human) [10]) of 184 MFI, an MFI (HLA-Cw*0302 (human)) of 130 MFI and an MFI (HLA-Cw*1601 (human) [11]) of 87 MFI. The MFI (HLA-B*1511 (human) [12]) was 111 MFI, the MFI (HLA-Cw*1402 (human)) was 48 MFI and the MFI (HLA-Cw*0501 (human) [13]) was 70 MFI. For the same substance, the MFI (HLA-Cw*1802 (human) [14]) was 35 MFI, the MFI (HLA-B*5101 (human) [15]) was 99 MFI and the MFI (HLA-B*3701 (human) [16]) was 29 MFI. The MFI (HLA-Cw*1601 (human) [17]) was 87 MFI, the MFI (HLA-B*1513 (human) [18]) was 760 MFI and the MFI (HLA-Cw*0304 (human)) was 783 MFI. For the same substance, the MFI (HLA-B*5201 (human)) was 786 MFI, the MFI (HLA-B*5101 (human) [19]) was 515 MFI and the MFI (HLA-B*4101 (human)) was 960 MFI. The MFI (HLA-Cw*1701 (human) [20]) was 847 MFI, the MFI (HLA-Cw*0303 (human)) was 805 MFI and the MFI (HLA-Cw*1601 (human) [21]) was 752 MFI. For the same substance, the MFI (HLA-Cw*0602 (human)) was 839 MFI, the MFI (HLA-B*5801 (human)) was 835 MFI and the MFI (HLA-B*1511 (human) [22]) was 796 MFI. The MFI (HLA-B*8201 (human)) was 614 MFI.
